Source: the DeepSol protein solubility set

assay: soluble on expression in E. coli; label from the status in PepcDB or PDB records

With “MQTYGGGWVLFQNRFDDSESYWDRKWDEYKNGFGDVDENSNFWLGNEALHVMTTNKKVTLRVEMYGDRTPNSKNATDFWFGHYFDFQVGSKTQNYPLLDLTMDWANPIGNASTAWYDLTCSIGSPFSTIDNIHDPVKECVTKFQMG” as the sequence, how does the “soluble on expression in E. coli” value read?
Its value is “not soluble”.

For “MGHHHHHHGGHMSLNISDVAKITGLTSKAIRFYEEKGLVTPPMRSENGYRTYTQQHLNELTLLRQARQVGFNLEESGELVNLFNDPQRHSADVKRRTLEKVAEIERHIEELQSMRDQLLALANACPGDDSADCPIIENLSGCCHHRAGEGGS”, which “soluble on expression in E. coli” value is on record?
Its value is “soluble”.

Which “soluble on expression in E. coli” value does the source give for “MGSDKIHHHHHHMSKIILVVAAHTDDEAMGCGGTIARHIAEGDEVHLLFMTDGVGSREVLAEEVIDRSSAAQQAAKILGVSSFTNLSFPDNRMDSVALLDIVKEVEVKISEIKPEIIYTHHIGDLNIDHQVTHKAVMTACRPQPGFSVKTIYAFEVLSSTEWQTSNSALFIPNVFIDITDYLPVKMDASKAYYNEMREVPHSRSLQHIELLARHRGYTVGVHAAEAFMLVREIK” here?
The value was “not soluble”.

With “MPAFDKPKVELHVHLDGSIKPETILYYGRRRGIALPANTAEGLLNVIGMDKPLTLPDFLAKFDYYMPAIAGCREAIKRIAYEFVEMKAKEGVVYVEVRYSPHLLANSKVEPIPWNQAEGDLTPDEVVALVGQGLQEGERDFGVKARSILCCMRHQPNWSPKVVELCKKYQQQTVVAIDLAGDETIPGSSLLPGHVQAYQEAVKSGIHRTVHAGEVGSAEVVKEAVDILKTERLGHGYHTLEDQALYNRLRQENMHFEICPWSSYLTGAWKPDTEHAVIRLKNDQANYSLNTDDPLIFKSTLDTDYQMTKRDMGFTEEEFKRLNINAAKSSFLPEDEKRELLDLLYKAYGMPPSASAGQNLAENLYFQ” as the sequence, how does the “soluble on expression in E. coli” value read?
Its value is “soluble”.

With “GSHMKNSVSVDLPGSMKVLVSKSSNADGKYDLIATVDALELSGTSDKNNGSGVLEGVKADASKVKLTISDDLGQTTLEVFKSDGSTLVSKKVTRADGTRLEYTGIKSDGSGKAKEVLKGYVLEGTLTAEKTTLVVKEGTVTLSKNISKSGEVSVELNDTDSSAATKKTAAWNSGTSTLTITVNSKKTKDLVFTSSNTITVQQYDSNGTSLEGSAVEITKLDEIKNALK” as the sequence, how does the “soluble on expression in E. coli” value read?
The value was “soluble”.

With “MSLKPTKIFAFGGLEEVGKNMYGIEYDDELIIVDCGIKFSSVELLGIDGIVPNFAYAKANQHKIKALVITHGHEDHIGGIPYLLREVSVPVIYAPLMATKLIEKKLHEHHNLNQYKIVSYNDKSEFSTKHFKIDFYRVCHSIPDAFGVCVQTPNGNIVESGDYRFDFNAGNEELDIHKVVEISRRGIDLFMTETTNAEIPGFSSSEKEIYDNIKNIIKNANGRVILSTFASNVTRISEVIEIAIQHGRKICLLGKSMDNNVSISRDVGYINLKDDDIVESRYVEQHPDNEIMIFCTGSQGEELAALNMLASGRHPWIQLKKTDSIIMSSNPIPGNYAAVERLLNELSKEEGISIYENSPTLKLHASGHATMQEIQLMLSLLRPKYLFPIHGEYKMFTSLKRIAKKCGFDPENVALHKNGQIVYLIDREGHHHHHH” as the sequence, how does the “soluble on expression in E. coli” value read?
The value was “soluble”.

With “MGSDKIHHHHHHMKFIFDIDGTICFKGNAVTKGIIHALDVCQSKGHEVIFASARPIRDLLPVLPNHMHHYSMIGGNGAFIAKGKDTIEVITFDPGTVSAIHSIIKKHSLSYLIDSHWNYSYTGSENHPIYKNIDPNQLANNVHIDEIKEVVKVVLFPDHVQKEYIMNMLTELPIRIYEHDNEGIVDISPENIDKWVGLQRLGIKEREFVVFGNDSNDLSMFLHAKESICVGSHEVLLGYASTCLKIDEQSIVNKIIELSELYA” as the sequence, how does the “soluble on expression in E. coli” value read?
Its value is “not soluble”.

With “MRLPPMLDNLTRMARMNDNQHRFALSDLYRFVNGPWLDSHVIPEDRGVDGIFHGLRDRAEEDVHTIVMDSADSLAGKLYASFMDTEGIESAGVAALDKDLTLIDVATVPEFVQALGALDRVGVGGPVGFWVAKDSAGDKSVAYIMQSGITLPDEAYYREESHAQTREAYQKHVEKMLGFLAPEQLGTTPIDAATRILALETDIAAAHWDVVQRRDAVKTFNPTEMAELPPQVAALLRAAGLPEHRVISMMPSYFEALESLLTPQRLDDWKLLTTWRILHSRAGVLTPEISRADFEFFGTTLSGATQQRDRWKRALGLAESFVGEEIGALYVERHFPESSKKDMLSLVSYLIEAYRERISGLSWMTPETRERALDKLDKFNAKIGYPDSWRSYAGLEFSAKGTDLL” as the sequence, how does the “soluble on expression in E. coli” value read?
The value was “not soluble”.

Which “soluble on expression in E. coli” value does the source give for “MWDLETDRVLNEIKTRNARKVLFQAPEGLKRAVEKEIEFLKTKIDAELMIWGETCFGACDLCDEEVTILGIDLIIHYGHEELSYVHSEIPVVFVHAYFKENEYFLKDVENILEKMENPTVTTTIQFKKALSKFNPVVILGCRAPVDNAENILFVGTGRFHPLMMAYKLKKTVKIYNPITREISEISDQEIKKLIKLRIGRVSKLLLNPPKKIGVVLSTKKGQCRLKSFENVIELLKKNNIEYIPIILNNLSQSYLFYKVDAYVICACPRIVMDDYQNYESTLLTPEELRMYLSNDFEYKFDEILENNFYLEHHHHHH” here?
Its value is “not soluble”.

With “MSLGTSYSEGVSSIHMVKGERGSNNLELTSESLSSTNDTIRRLQRDLLFLQNELRFEKFVRQQHLQNIGKLHREHILDMAVESERQKLLLTNKRYKAQIELLNSEIDKHRSESQAALNRRVKWENDFNNKIKALREEKKAWKSEESELKSSIESLISQLESIRNSQIDIAFSKNQLELKLQLYETKLKEYEQHLSCVNISKKQVSSSSDTSFGNTKMDSSMILSNSEAVSDEQERELIESEKHRMKLESENLHLQANIELLKKDLEAINVVYEAKIFDLEKRLSSEANAPELHNPVNLNYDAQLSKISEIKENYDELLTRYRELEGKFLESQAEVEELKNFQKPLVDTGSSIHSSPGLQEGHHHHHH” as the sequence, how does the “soluble on expression in E. coli” value read?
The value was “soluble”.

With “MEKQYRVLLYYKYVPIEDPEAFREQHLAFCKELGLLGRILVSSEGINGTVSGTVEQTEKYMETMKADPRFADMVFKIDEAEGHAFKKIFVRHKKELVTLRLEDDVDPNETTGQHLKPAEFYEKMQDPNTIVIDARNDYEYDLGHFRGAVRPDIEAFRELPEWIEEHKDMLEGKKILTYCTGGVRCEKFSGWLVKQGFEDVAQLDGGIVTYGKDPEVQGKLWDGQCYVFDERISVPVNRVEHVIVGKDYFTGEPCERYVNCANPSCNKKMICTPENEYKYMRSCSHECRTNPRNLYVKEHNMTEEEVNARLAAIETEDHAAAELEHHHHHH” as the sequence, how does the “soluble on expression in E. coli” value read?
The value was “soluble”.

For “MGSDKIHHHHHHMRIVFVGTPEFAAEILEHLIKNGFNVVGVVTQPDKPRGRGRKVAPTPVKAVAEKHEVPFIQPESINKKEALEFLRSVRPDVIIVASYGKILGEKVLSLPRLGCYNIHPSLLPKYRGASPIQRVLENGEERTGVTIYKMVKELDAGPIALQKEISVDPFETFDQLEKRLIELSKEMLIEFLEKLKTGNIELKEQDHSRATYAPMIKKEDLIVDFSKDAESVKNKIRAYDSRPGARAFLGNVEVKLFGVTAIDSSGDEPGLINYIDREGAWIGTGDGKVKVRYIQFPGKKKMTFWEAKNGRLIIEGMRFERRYES”, which “soluble on expression in E. coli” value is on record?
The value was “not soluble”.

With “MAFTPFPPRQPTASARLPLTLMTLDDWALATITGADSEKYMQGQVTADVSQMAEDQHLLAAHCDAKGKMWSNLRLFRDGDGFAWIERRSVREPQLTELKKYAVFSKVTIAPDDERVLLGVAGFQARAALANLFSELPSKEKQVVKEGATTLLWFEHPAERFLIVTDEATANMLTDKLRGEAELNNSQQWLALNIEAGFPVIDAANSGQFIPQATNLQALGGISFKKGCYTGQEMVARAKFRGANKRALWLLAGSASRLPEAGEDLELKMGENWRRTGTVLAAVKLEDGQVVVQVVMNNDMEPDSIFRVRDDANTLHIEPLPYSLEELEHHHHHH” as the sequence, how does the “soluble on expression in E. coli” value read?
The value was “not soluble”.

For “MSLTETLDNTQDLLMDVDKYNFWEVEGEDAAGEVNSKDMDMVGVDEKSGAPVFRLTDNNDEQPLNENENGNFKFKMNTIATENMAYLTEKDKYKLYPSKVPGYDNSREYSSYVSKVFELYNDLDEHRVYSAPTIGIINKSYAREHNYVLNVAFESFVTELNFFIESIKNDPNLINRVLQLEESITILNCLKTIHFTFDSLQNESDSREQFVNSLIDWVNRSDGEPKEEYIEQIFTRNDNIEVFNTLQFWKLVNKLLLRGLFEQALGCLERSKIMDFLKSQCEVSANILGDAIALLEQYPIDSSETFREWKFMVLGLQQTYSNSNTKITGELRDYIEDTLLLIGGNQSKLLQYSSTWYEAYASFYLYYIPTLELSHDYLELALSTHPLDLTKNWEQACVNIINNKIYSILPVLESLDLCTAATTAALCEAKGILENFLDDDTKTFKGNVDKLVTPVHGMASYLLNQFAFELCSQEEKTLWPVAIGLISISPFESASVKRTTISEVLPRFPFSTNDDIEWMLAVCAKWRLPKIAKKIYKILGSKLQAEGNVIESMTNFSKAGEFDIVKNEGHHHHHH”, which “soluble on expression in E. coli” value is on record?
The value was “soluble”.

Which “soluble on expression in E. coli” value does the source give for “MKIEDIYQFFENPPPTYLCQEVAICYILYVLLQGESYGTELIQQLETEHPTYRLSDTVLYSAIKFLEDNRAITGYWKKLEGRGRPRRMYQVSPEWQHQAEDLARLWQNYIYVRTN” here?
The value was “soluble”.

With “MLKGKYTKIEKVNGVEREYLITDKYGITIGRIFIVDLNKDNRFCMFRMKIYKQGKSINTYIKEILSVFMEFLFKSNDINKVNIIVDEEVSTQPFVELGFAFEGIINKSIIEKNVLKDEFLFGMDYKNYNSDRINVFKLYGKSITLKVLTPEDAENMLQYYIKNKEHLKPFEPEREESFYTFEAQKQMLIENYKQFINGEGTNFGIYKDAKLIGKIQISGTIYGVFKSAIIGYSIDKDYQGKGYMKDALRVAEAYAFNVMNLHRIEASALVDNLRSQNVLIGCGFEKLGINKNYLFINGRWQDHITFYKTNNN” as the sequence, how does the “soluble on expression in E. coli” value read?
The value was “not soluble”.

For “MGSDKIHHHHHHMLNQSNELNAWDRDHFFHPSTHMGTHARGESPTRIMAGGEGVTVWDNNGRKSIDAFAGLYCVNVGYGRQKIADAIATQAKNLAYYHAYVGHGTEASITLAKMIIDRAPKGMSRVYFGLSGSDANETNIKLIWYYNNVLGRPEKKKIISRWRGYHGSGVMTGSLTGLDLFHNAFDLPRAPVLHTEAPYYFRRTDRSMSEEQFSQHCADKLEEMILAEGPETIAAFIGEPILGTGGIVPPPAGYWEKIQAVLKKYDVLLVADEVVTGFGRLGTMFGSDHYGIKPDLITIAKGLTSAYAPLSGVIVADRVWQVLVQGSDKLGSLGHGWTYSAHPICVAAGVANLELIDEMDLVTNAGETGAYFRAELAKAVGGHKNVGEVRGDGMLAAVEFVADKDDRVFFDASQKIGPQVATALAASGVIGRAMPQGDILGFAPPLCLTREQADIVVSKTADAVKSVFANL”, which “soluble on expression in E. coli” value is on record?
Its value is “not soluble”.

With “SSGAQGAEPMDSRTATTYESVEGGQNKTKLDIRSKEDEGGIQVDKLQDKVSDAAGLGGPVFGAGKDDKKQDLGVTGTG” as the sequence, how does the “soluble on expression in E. coli” value read?
The value was “soluble”.

With “MTKDQRRSLTKKALLDALVICLKDQDFNEITTIRLVQTAGISRSSFYTHYKDKFEMIDSYQKELFHKLEYIFDKYEGKKEGAFLEIFEILTREKLLSALLSTNGAKEIQDFLINKLQRMIAKDFIDPTAEKRALKGFEKDYASIYLAHAIFGACQAWIKNGKKESPQEMTDFLLRFIPQ” as the sequence, how does the “soluble on expression in E. coli” value read?
Its value is “not soluble”.

Which “soluble on expression in E. coli” value does the source give for “MSDSWTERWNDRYSNEIFAYGEKPNNYLKAQLENLQPGTILFAAEGEGRNAVFAACLGWDVQAFDISSEGKKKAFQLAEKNQVTIAYQVGQLETLGYTAGQFDALALIYAHFPATVKSAYHRILSSYVRSGGYIIFEAFSKKHLDYLAKNEQVGGPKEFDMLFSIEEIKADFPDYEILELEEKEIELNEGQFHNGTGSVIRFTGRKKLEHHHHHH” here?
Its value is “not soluble”.
